Experiment [1] deals with T1, full length murine ALCAM1-583 (Mus musculus, UniProt Q61490).
T1 construct: host or cells: AT1R-CHO (CHO stably transfected with human AT1R-Rluc8), transient transfection; untagged clone in pCMV6
T1 sequence (Q61490 28-583): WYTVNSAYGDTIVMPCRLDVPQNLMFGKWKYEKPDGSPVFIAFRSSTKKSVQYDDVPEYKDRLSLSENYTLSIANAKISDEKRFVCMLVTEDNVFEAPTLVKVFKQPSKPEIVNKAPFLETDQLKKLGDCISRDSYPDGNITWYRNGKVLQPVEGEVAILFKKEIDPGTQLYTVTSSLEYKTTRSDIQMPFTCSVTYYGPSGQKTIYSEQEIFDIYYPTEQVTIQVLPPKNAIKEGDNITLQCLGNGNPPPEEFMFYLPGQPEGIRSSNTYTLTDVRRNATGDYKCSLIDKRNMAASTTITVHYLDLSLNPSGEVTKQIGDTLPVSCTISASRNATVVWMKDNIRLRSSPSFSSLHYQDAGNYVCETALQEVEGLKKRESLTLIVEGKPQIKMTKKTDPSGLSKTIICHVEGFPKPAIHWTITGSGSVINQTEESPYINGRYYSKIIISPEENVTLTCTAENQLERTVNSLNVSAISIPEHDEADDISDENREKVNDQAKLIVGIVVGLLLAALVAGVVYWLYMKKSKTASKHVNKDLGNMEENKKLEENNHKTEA
Put plainly: Ang II-induced p65/PCNA expression in AT1R-CHO cells transfected with full length murine ALCAM (qRT-PCR). It is filed as cell-based. The settings on record: Ang II 1 μM 2 h, co-transfection of the construct, vs pCIneo (FIG. 3B, 5B). As for the experimental part: (§1) Adult retinal pigment epithelial (ARPE) cells were cultured in Dulbecco's modified Eagle's medium (DMEM)/F12 endothelial cell growth supplement (ECGS) supplemented media. Chinese Hamster Ovary (CHO) cells were cultured using F12 media (10% FCS with 2 mM glutamine). Human microvascular endothelial cells (HMEC) were cultured in MCDB 131 medium (10% FCS with 10 mM glutamine, EGF and hydrocortisone).
(§2) 100 ng of AT1R-Rluc8 construct was transfected into CHO cells using Lipofectamine 2000 (Thermo). Stable transfectants were selected using G418. AT1R-CHO were then transiently transfected with the IgSF CAM and/or RAGE constructs using Lipofectamine 2000 (Invitrogen) and incubated for 16h.
Oligonucleotides were designed and ordered to generate the ALCAM, BCAM and MCAM intracellular (cytosolic) domains. These included a 5′ NheI site, Kozak sequence and initiating Methionine and then DNA sequences corresponding to ALCAM residues 552-583, BCAM residues 569-628 and MCAM residues 584-637 respectively (Note that as residue 551 of ALCAM is Methionine, the cytosolic tail of ALCAM effectively corresponded to residues 551-583). The pCIneo parental vector was digested with NheI and NotI restriction enzymes, and the DNA of the fragments of the ALCAM, BCAM and MCAM tails/cytosolic domains were ligated into the digested plasmid. After transformation and recovery, colonies were screened and individual clones sequenced. The sequence of the insert was confirmed by DNA sequencing (Micromon, Monash University). A full-length clone of Mouse ALCAM (BC027280) was purchased from Origene. The untagged clone was supplied in the vector pCMV6. […]
(§3) After 2 hours of exposure to Ang II (1 μM) cells were placed in Trizol, mRNA extracted and cDNA synthesized. Changes in the gene expression of the NFκB subunit, p65 (RelA) or NFκB-activated target genes (e.g ICAM-1) were estimated by quantitative real-time RT-PCR, performed using the TaqMan system based on real-time detection of accumulated fluorescence (ABI Prism 7700, Perkin-Elmer Inc, PE Biosystems, Foster City, Calif., USA). […]

The target of experiment [2] is T2, human ALCAM (ALCAM1-583, cytosolic tail ALCAM551-583) (Homo sapiens, UniProt Q13740).
T2 construct: expressed in transfected cells; host or cells: AT1R-CHO (CHO stably transfected with human AT1R-Rluc8), transient transfection
T2 sequence (Q13740 551-583): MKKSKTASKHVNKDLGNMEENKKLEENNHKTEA
Put plainly: Ang II-induced p65/PCNA expression in AT1R-CHO cells transfected with human ALCAM (full length or cytosolic tail). It is filed as cell-based. Conditions: Ang II 1 μM, co-transfection (FIG. 3G, 1E). The procedure:
as §1, §2
(§4) Oligonucleotides were designed and ordered to generate the ALCAM, BCAM and MCAM intracellular (cytosolic) domains. These included a 5′ NheI site, Kozak sequence and initiating Methionine and then DNA sequences corresponding to ALCAM residues 552-583, BCAM residues 569-628 and MCAM residues 584-637 respectively (Note that as residue 551 of ALCAM is Methionine, the cytosolic tail of ALCAM effectively corresponded to residues 551-583). The pCIneo parental vector was digested with NheI and NotI restriction enzymes, and the DNA of the fragments of the ALCAM, BCAM and MCAM tails/cytosolic domains were ligated into the digested plasmid. After transformation and recovery, colonies were screened and individual clones sequenced. The sequence of the insert was confirmed by DNA sequencing (Micromon, Monash University). A full-length clone of Mouse ALCAM (BC027280) was purchased from Origene. The untagged clone was supplied in the vector pCMV6. Overlapping DNA sequences were ordered to generate the ALCAM559-580 fragment oligonucleotide. These included a 5′ NheI site, Kozak sequence and initiating Methionine and then DNA sequences corresponding to ALCAM residues 559-580. The pCIneo parental vector was digested with NheI and NotI restriction enzymes, and the ALCAM559-580 construct DNA was ligated into the digested plasmid. After transformation and recovery, colonies were screened and individual clones sequenced.
(§5) After 2 hours of exposure to Ang II (1 μM) cells were placed in Trizol, mRNA extracted and cDNA synthesized. Changes in the gene expression of the NFκB subunit, p65 (RelA) or NFκB-activated target genes (e.g ICAM-1) were estimated by quantitative real-time RT-PCR, performed using the TaqMan system based on real-time detection of accumulated fluorescence (ABI Prism 7700, Perkin-Elmer Inc, PE Biosystems, Foster City, Calif., USA). Gene expression was normalized to 18S mRNA and reported as fold change compared to the level of expression in untreated control mice/cells, which were given an arbitrary value of 1.

A further experiment concerns AT1R-CHO cells. The experiment in a line: p65 expression in AT1R-CHO cells expressing the truncated construct alone. It is filed as cell-based, Chinese Hamster. Conditions: for induction of p65 expression by Ang II when the construct alone is expressed: AT1R-CHO cells, Ang II 1 μM (FIG. 3A, 5A, 5B); for induction of p65 expression following exposure to S100A8/9 when the construct alone is expressed: S100A8/9 1 μM (FIG. 4A). As for the experimental part:
as §1, §2, §4, §5

The target of experiment [3] is T3, cytosolic tail of ALCAM, ALCAM551-583 (Homo sapiens, UniProt Q13740).
T3 construct: corresponds to residues 551-583 of ALCAM, with initial Methionine already present; expressed in transfected cells; host or cells: human ARPE (adult retinal pigment epithelial) cells; insert in pCIneo
T3 sequence (Q13740 551-583 limits assumed): T2 sequence (Q13740 551-583)
Put plainly: Ang II-induced ICAM-1 expression in ARPE cells transfected with cytosolic tail of ALCAM. It is filed as cell-based. Conditions: Ang II 1 μM, co-transfection (FIG. 2A). The procedure:
as §1
(§6) Oligonucleotides were designed and ordered to generate the ALCAM, BCAM and MCAM intracellular (cytosolic) domains. These included a 5′ NheI site, Kozak sequence and initiating Methionine and then DNA sequences corresponding to ALCAM residues 552-583, BCAM residues 569-628 and MCAM residues 584-637 respectively (Note that as residue 551 of ALCAM is Methionine, the cytosolic tail of ALCAM effectively corresponded to residues 551-583). […]
as §3

Experiment [4] concerns the target T1, full length murine ALCAM1-583. The experiment in a line: S100A8/A9-induced PCNA expression in CHO cells transfected with full length murine ALCAM. Conditions: S100A8/A9 1 μM 2 h, co-transfection (FIG. 4A). It is filed as cell-based. As for the experimental part: as §1
as §6, with “551-583). The pCIneo parental vector was digested with NheI and NotI restriction enzymes, and the DNA of the fragments of the ALCAM, BCAM and MCAM tails/cytosolic domains were ligated into the digested plasmid.” for “551-583).”
[…] Changes in the gene expression of the NFκB subunit, p65 (RelA) or NFκB-activated target genes (e.g ICAM-1) were estimated by quantitative real-time RT-PCR, performed using the TaqMan system based on real-time detection of accumulated fluorescence (ABI Prism 7700, Perkin-Elmer Inc, PE Biosystems, Foster City, Calif., USA). […]

The target of experiment [5] is T4, cytosolic tail of MCAM, MCAM584-637 (Homo sapiens, UniProt P43121).
T4 sequence (P43121 with tags, fused parts or gaps): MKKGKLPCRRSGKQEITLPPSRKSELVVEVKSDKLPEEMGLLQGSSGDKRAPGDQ
Put plainly: Ang II-induced ICAM-1 expression in ARPE cells transfected with cytosolic tail of MCAM. It is filed as cell-based. Further details: corresponds to residues 584-637 of MCAM plus an initiating Methionine; initiating Methionine (N); expressed in transfected cells; host or cells: human ARPE (adult retinal pigment epithelial) cells; insert in pCIneo. Conditions: Ang II 1 μM, co-transfection (FIG. 2B). As for the experimental part: as §1, §6, §3

For experiment [6], the target named is T5, cytosolic tail of human EpCAM, EpCAM289-314 (Homo sapiens, UniProt P16422).
T5 construct: corresponds to residues 289-314 of EpCAM plus an initiating Methionine; initiating Methionine (N); expressed in transfected cells; host or cells: AT1R-CHO (CHO stably transfected with human AT1R-Rluc8), transient transfection
T5 sequence (P16422 with tags, fused parts or gaps limits assumed): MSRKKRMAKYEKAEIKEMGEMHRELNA
The experiment in a line: Ang II-induced p65 expression in AT1R-CHO cells transfected with cytosolic tail of EpCAM. It is filed as cell-based. Conditions: Ang II 1 μM, co-transfection (FIG. 3J). The procedure: as §1, §2, §5

The target in experiment [7] is T6, cytosolic tail of human CADM4, CADM4346-388 (Homo sapiens, UniProt Q8NFZ8).
T6 construct: initiating Methionine (N); expressed in transfected cells; host or cells: AT1R-CHO (CHO stably transfected with human AT1R-Rluc8), transient transfection
T6 sequence (Q8NFZ8 with tags, fused parts or gaps): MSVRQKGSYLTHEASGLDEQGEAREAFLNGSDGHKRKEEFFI
Put plainly: Ang II-induced p65 expression in AT1R-CHO cells transfected with cytosolic tail of CADM4. The settings on record: Ang II 1 μM, co-transfection (FIG. 3K). It is filed as cell-based. The procedure:
as §1, §2, §5

The target of experiment [8] is T7, cytosolic tail of BCAM, BCAM569-628 (Homo sapiens, UniProt P50895).
T7 sequence (P50895 with tags, fused parts or gaps): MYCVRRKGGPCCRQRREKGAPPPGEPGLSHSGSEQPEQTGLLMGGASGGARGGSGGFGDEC
Put plainly: Ang II-induced p65 expression in AT1R-CHO cells transfected with cytosolic tail of BCAM. It is filed as cell-based. Further details: corresponds to residues 569-628 of BCAM plus an initiating Methionine; initiating Methionine (N); expressed in transfected cells; host or cells: AT1R-CHO (CHO stably transfected with human AT1R-Rluc8); insert in pCIneo. Conditions: Ang II 1 μM, co-transfection (FIG. 3H). As for the experimental part: as §1, §2
(§7) Oligonucleotides were designed and ordered to generate the ALCAM, BCAM and MCAM intracellular (cytosolic) domains. […]
as §3

Experiment [9] addresses T4, cytosolic tail of MCAM, MCAM584-637. Put plainly: Ang II-induced p65 expression in AT1R-CHO cells transfected with cytosolic tail of MCAM. It is filed as cell-based. Conditions: Ang II 1 μM, co-transfection (FIG. 3I). Further details: corresponds to residues 584-637 of MCAM plus an initiating Methionine; initiating Methionine (N); expressed in transfected cells; host or cells: AT1R-CHO (CHO stably transfected with human AT1R-Rluc8); insert in pCIneo. The procedure:
as §1, §2, §7, §3

On to MGEERKAPENQEEEEERAELNQ [RAGE370-390], for which the “induction of p65-NFκB expression by Ang II via AT1R-dependent transactivation of full length murine ALCAM1-583” value in experiment [1] is “inhibited”. In experiment [2], the “induction of p65-NFκB expression by Ang II via transactivation of the cytosolic tail of human ALCAM, ALCAM551-583” value is reported as “inhibited”. Besides, in the experiment on AT1R-CHO cells, the “induction of p65 expression by Ang II when the construct alone is expressed” value is “no induction of p65 expression is observed” and the “induction of p65 expression following exposure to S100A8/9 when the construct alone is expressed” value is “no induction of p65 expression is observed”. Further, the “NFKB-dependent induction of ICAM-1 gene expression by Ang II via ALCAM551-583” value in experiment [3] is listed as “inhibited”. Besides, the “ligand-dependent signalling (PCNA expression) via murine ALCAM activated by S100A8/A9” value in [4] was “inhibited”. Besides, in [5], the “NFKB-dependent induction of ICAM-1 gene expression by Ang II via MCAM584-637” value is recorded as “inhibited”.
Consider “QEEEEERAELNQ (Synthetic peptide - Truncated amino acid sequence corresponding to residues 379 to 390 of human RAGE protein) [RAGE379-390]”, for which the “induction of p65-NFκB expression by Ang II via transactivation of the cytosolic tail of human ALCAM, ALCAM551-583” value in [2] was “prevents induction”. Further, in [6], the “induction of p65-NFκB expression by Ang II via transactivation of EpCAM289-314” value is listed as “prevents induction”. Besides, the “induction of p65-NFκB expression by Ang II via transactivation of CADM4346-388” value in [7] is recorded as “prevents induction”. Further, in the experiment with AT1R-CHO cells, the “induction of p65 expression by Ang II when the construct alone is expressed” value is listed as “no induction of p65 expression is observed” and the “induction of p65 expression following exposure to S100A8/9 when the construct alone is expressed” value is “no induction of p65 expression is observed”. Further, in experiment [8], the “induction of p65-NFκB expression by Ang II via transactivation of BCAM569-628” value is recorded as “prevents induction”. Moreover, the “induction of p65-NFκB expression by Ang II via transactivation of MCAM584-637” value in experiment [9] is listed as “prevents induction”.

The values above are taken from US20220169693A1, “Screening Assays, Modulators and Modulation of Intracellular Signalling Mediated by Immunoglobulin Superfamily Cell Adhesion Molecules” (Monash University, priority 2018, published 2022).
